Reference: US20230365705A1 (DYNAMICURE BIOTECHNOLOGY, published 2023)

What was measured:
[1] = target: T1, Human CD93 on cells (human CD93 expressing CHO cells; HUVEC, U937 and KG1a cells) (human, UniProt Q9NPY3 22-652); assay: flow cytometry on human CD93 expressing CHO cells
T1 construct: whole, on cells; also called hCD93 expressing CHO cells; hCD93 CHO cells
T1 sequence (looked up): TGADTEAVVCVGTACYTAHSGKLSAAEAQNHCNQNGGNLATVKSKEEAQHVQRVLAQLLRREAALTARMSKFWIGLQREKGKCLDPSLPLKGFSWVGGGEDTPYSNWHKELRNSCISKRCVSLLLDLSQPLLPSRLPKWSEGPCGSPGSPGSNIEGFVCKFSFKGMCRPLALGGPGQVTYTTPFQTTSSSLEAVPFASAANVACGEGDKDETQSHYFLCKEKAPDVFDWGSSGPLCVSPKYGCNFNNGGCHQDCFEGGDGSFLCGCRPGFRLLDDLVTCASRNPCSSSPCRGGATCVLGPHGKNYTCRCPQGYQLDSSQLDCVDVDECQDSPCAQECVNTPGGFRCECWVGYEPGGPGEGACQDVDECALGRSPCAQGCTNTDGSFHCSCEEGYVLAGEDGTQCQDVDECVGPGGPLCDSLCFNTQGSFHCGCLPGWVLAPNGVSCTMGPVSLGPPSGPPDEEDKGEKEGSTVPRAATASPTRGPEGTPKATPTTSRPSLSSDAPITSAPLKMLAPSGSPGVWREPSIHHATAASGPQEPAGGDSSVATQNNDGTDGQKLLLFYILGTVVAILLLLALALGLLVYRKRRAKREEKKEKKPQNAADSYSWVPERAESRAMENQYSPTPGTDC
Experimental: Human CD93 expressing CHO cells were detached by incubation with TrypLE reagents (Thermo Fisher), which preserves the integrity of CD93 on the cell surface. Then the cells were incubated with serially diluted anti-CD93 antibodies for 30 minutes in 4° C. After washing by FACS buffer, the cells were incubated with Alexa Fluor 647 conjugated anti-human IgG (Jackson ImmunoResearch) for 30 minutes in 4° C. After washing by FACS buffer twice, the samples were acquired in NovoCyte Flow Cytometer and analyzed by NovoExpress software.

[2] = target: T2, rm VEGFA (recombinant mouse VEGFA) (mouse, UniProt Q00731-2 27-190, limits assumed); assay: ELISA, mVEGFA coated at 1 µg/mL, anti-human Fc HRP; single bars, concentration not given
T2 sequence (looked up): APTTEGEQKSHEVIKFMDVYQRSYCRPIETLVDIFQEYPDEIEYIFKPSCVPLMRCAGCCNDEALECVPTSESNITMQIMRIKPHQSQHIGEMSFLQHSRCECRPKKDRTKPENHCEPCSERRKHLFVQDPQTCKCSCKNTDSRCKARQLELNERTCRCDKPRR
Experimental: (§1) His-tagged human CD93, cyno CD93, human VEGFA, and mouse VEGFA were coated onto a 96 well plate at 1 μg/mL in 1× PBS overnight at 4′C. The plate was washed with ELISA wash buffer (Boston BioProduct, Inc.) and the wells were blocked with 3% BSA/PBS ELISA blocking buffer for 1 hour at 37′C. […] The plate was washed with ELISA wash Buffer. HRP conjugated Anti-human Fc was added and incubated for one hour at 37° C. The plate was washed with ELISA wash buffer and read in a microplate reader at 405 nm.

[3] = target: T3, Human CD93 recombinant protein (Sino Biological Inc, Catalog #12589-H08H) (human, UniProt Q9NPY3 22-580); assay: summary table, column Octet (hCD93)
T3 construct: Biotinylated (EZ-LINK NHS-PEG4 biotin) in the BLI assays; also called hCD93; His-tagged human CD93
T3 sequence (looked up): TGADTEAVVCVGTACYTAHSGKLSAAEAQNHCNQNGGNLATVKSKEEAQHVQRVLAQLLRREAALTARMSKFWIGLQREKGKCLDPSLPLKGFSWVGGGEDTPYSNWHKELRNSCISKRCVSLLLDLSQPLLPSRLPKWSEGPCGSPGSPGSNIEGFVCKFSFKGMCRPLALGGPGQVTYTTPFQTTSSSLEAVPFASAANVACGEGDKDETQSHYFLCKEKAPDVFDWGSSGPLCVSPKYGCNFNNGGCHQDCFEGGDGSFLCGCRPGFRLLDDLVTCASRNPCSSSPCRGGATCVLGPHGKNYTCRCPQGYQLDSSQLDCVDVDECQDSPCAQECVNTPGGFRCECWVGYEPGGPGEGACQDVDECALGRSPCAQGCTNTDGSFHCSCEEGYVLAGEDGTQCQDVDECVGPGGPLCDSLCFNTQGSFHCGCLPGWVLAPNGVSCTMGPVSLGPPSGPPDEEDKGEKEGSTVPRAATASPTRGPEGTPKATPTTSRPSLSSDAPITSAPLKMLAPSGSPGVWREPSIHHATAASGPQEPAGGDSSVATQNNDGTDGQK

[4] = target: T3, Human CD93 recombinant protein (Sino …); assay: summary table, column ELISA (hCD93)
[5] = target: T3, Human CD93 recombinant protein (Sino …); assay: ELISA, His-tagged human CD93 coated, OD450
Experimental: His-tagged human CD93 was coated onto a 96 well plate at 1 μg/mL in 1×PBS overnight at 4° C. The plate was washed with ELISA wash buffer (Boston BioProduct, Inc.) and the wells were blocked with ELISA blocking buffer for 1 hour at 37° C. […] The plate was washed with ELISA wash Buffer. HRP-conjugated anti-human Fc antibody was incubated for 1 hour at 37° C. The plate was washed with ELISA wash Buffer. HRP substrate was added for indirect detection of the antibodies binding to CD93.

[6] = target: rh VEGFA (recombinant human VEGFA) (human, UniProt P15692-4 27-191, limits assumed); assay: ELISA, antigen coated at 1 µg/mL
Experimental: as §1

[7] = target: T3, Human CD93 recombinant protein (Sino …); assay: ELISA, hCD93-His coated, OD450
Experimental: His-tagged human CD93 was coated onto a 96 well plate at 1 μg/mL in 1×PBS overnight at 4° C. The plate was washed with ELISA wash buffer (Boston BioProduct, Inc.) and the wells were blocked with ELISA blocking buffer for 1 hour at 37° C. Purified antibodies were serially diluted in ELISA blocking buffer (Boston BioProduct, Inc.) and incubated on the receptor for 1 hour at 37° C. The plate was washed with ELISA wash Buffer. […] The plate was washed with ELISA wash buffer. HRP substrate was added for indirect detection of the antibodies binding to CD93.

[8] = target: T3, Human CD93 recombinant protein (Sino …); assay: BLI (Octet QKe), biotinylated human CD93 on streptavidin biosensors
Experimental: The binding affinity of anti-CD93 antibodies was determined with bio-layer interferometry using Octet QKe (Fortebio). […] Human CD93 recombinant protein (Sino Biological Inc, Catalog #12589-H08H) was biotinylated using EZ-LINK NHS-PEG4 biotin (Thermo Fisher Scientific). Streptavidin biosensors (Fortebio) were used to load biotinylated CD93 protein (300 seconds in 5 μg/ml). Baseline was stabilized for 60 seconds in 1×kinetics buffer (Fortebio) before anti-CD93 antibodies, at a serial dilution, were allowed to associate for 300 seconds with captured protein. Then the sensors were dissociated in 1× kinetics buffer for 600 seconds. […] (FIG. 41).

- EC50 [1]: 0.4 nM
- binding result [2]: no binding
- Kd [3]: 0.588 nM
- EC50 [4]: 0.041 nM
- EC50 [5]: 0.041 nM
- binding result [6]: no binding
- EC50 [7]: 0.02 nM
- Kd [8]: 0.588 nM
- koff [8]: 0.000335 s⁻¹
- kon [8]: 570000 M⁻¹ s⁻¹
B1: 7F3-hIgG1 (recombinant chimeric 7F3) (antibody, V domains shown)
VH: QVQLQQSGADLVRPGASVKLSCKASGYTFTDYEMHWVKQTPVYGLEWIGGIDPETGDTAYNQNFKGKATLTADKSSSAAYMELRSLTSEDSAVYYCTNYGNLYYYAMDYWGQGTSVTVSS
VL: ENVLTQSPAIMSASPGEKVTMTCRASSSVSSSYLHWYQQKSGASPKLWIYSTSNLAFGVPARFSGSGSGTSYSLTISSVEAEDAATYYCQQYSGYPLTFGSGTKLEIK
notes: also called chimeric 7F3-hIgG1; recombinant 7F3
